Measurements taken from patent publication US20250313632A1.
Read-outs that look alike come from different tables or passages of the source.

Assays:
[1] = molecular target: human B7-H3 expressed on A375 tumor cells (human) (UniProt Q5ZPR3); assay: flow cytometry on A375 cells, MFI(PE); unit from the axis Conc (nM)
[2] = molecular target: human B7-H3 expressed on A375 tumor cells (human) (UniProt Q5ZPR3); assay: as above; remark: listed apart in the source
[3] = molecular target: human B7-H3 protein (human) (UniProt Q5ZPR3); assay: Octet (BLI) epitope binning on captured human B7-H3; competitor 72D1D11
[4] = molecular target: human B7-H3 (4Ig) protein (his tag) (human) (UniProt Q5ZPR3); assay: SPR (Biacore T200), antibody captured on Protein A chip, B7-H3 injected, 1:1 model
[5] = molecular target: human B7-H3 protein (human) (UniProt Q5ZPR3); assay: Octet (BLI) epitope binning on captured human B7-H3; competitor AHP05562
[6] = molecular target: human B7-H3 protein (human) (UniProt Q5ZPR3); assay: Octet (BLI) epitope binning on captured human B7-H3; competitor AHP06345
[7] = molecular target: human B7-H3 protein (human) (UniProt Q5ZPR3); assay: Octet (BLI) epitope binning on captured human B7-H3; competitor CA84D

B1: 72D1D11-z1 (antibody, V domains shown)
VH: QVQLVQSGSELKKPGASVKVSCKASGYTFTNLGLNWVRQAPGQGLEWMGWINTAGGQPTYAEDFKGRFVFSLDTSVSTAYLQISSLKAEDTAVYYCARDDGYYYTMDYWGQGTTVTVSS
VL: DIVMTQTPLSLPVTPGEPASISCRSSQSLVHSNGKTYLHWYLQKPGQSPQLLIYKVSNRFSGVPDRFSGSGSGTDFTLKISRVEAEDVGVYYCSQSTHVPWTFGGGTKLEIK
- EC50 [1]: 630 pM

B2: 72D1D11-z3p1 (antibody, V domains shown)
VH: QVQLVQSGSELKKPGASVKVSCKASGYTFTNLGLNWVRQAPGQGLEWMGWINTAGGQPTYAEDFKGRFVFSLDTSVSTAYLQISSLKAEDTAVYYCARDDGYYYTMDYWGQGTTVTVSS
VL: DIVMTQSPLSLPVTPGEPASISCRSSQSLVHSNAKTYLHWYLQKPGQSPQLLIYKVSNRFSGVPDRFSGSGSGTDFTLKISRVEAEDVGVYYCSQSTHVPWTFGGGTKLEIK
- EC50 [2]: 360 pM

B3: 72D1D11-z2 (antibody, V domains shown)
VH: QVQLVQSGSELKKPGASVKVSCKASGYTFTNLGLNWVRQAPGQGLEWMGWINTAGGQPTYAEDFKGRFVFSLDTSVSTAYLQISSLKAEDTAVYYCARDDGYYYTMDYWGQGTTVTVSS
VL: DIVMTQTPLSLPVTPGEPASISCRSSQSLVHSNGKTYLHWYLQKPGQSPQLLIYKVSNRFSGVPDRFSGSGSGTDFTLKISRVEAEDVGVYFCSQSTHVPWTFGGGTKLEIK
- EC50 [1]: 520 pM

B4: 72D1D11-z6 (antibody, V domains shown)
VH: QVQLVQSGSELKKPGASVKVSCKASGYTFTNLGLNWVRQAPGQGLEWMGWINTAGGQPTYAEDFKGRCVFSLDTSVSTAYLQISSLKAEDTAVYYCARDDGYYYTMDYWGQGTTVTVSS
VL: DIVMTQTPLSLPVTPGEPASISCRSSQSLVHSNGKTYLHWYLQKPGQSPQLLIYKVSNRFSGVPDRFSGSGSGTDFTLKISRVEAEDVGVYFCSQSTHVPWTFGGGTKLEIK
- EC50 [1]: 540 pM

B5: 72D1D11-z4 (antibody, V domains shown)
VH: QVQLVQSGSELKKPGASVKVSCKASGYTFTNLGLNWVRQAPGQGLEWMGWINTAGGQPTYAEDFKGRFVFSLDTSVSTAYLQISSLKAEDTAVYYCARDDGYYYTMDYWGQGTTVTVSS
VL: DIVMTQSPLSLPVTPGEPASISCRSSQSLVHSNGKTYLHWYLQKPGQSPQLLIYKVSNRFSGVPDRFSGSGSGTDFTLKISRVEAEDVGVYFCSQSTHVPWTFGGGTKLEIK
- EC50 [1]: 490 pM

B6: 72D1D11-z5 (antibody, V domains shown)
VH: QVQLVQSGSELKKPGASVKVSCKASGYTFTNLGLNWVRQAPGQGLEWMGWINTAGGQPTYAEDFKGRCVFSLDTSVSTAYLQISSLKAEDTAVYYCARDDGYYYTMDYWGQGTTVTVSS
VL: DIVMTQTPLSLPVTPGEPASISCRSSQSLVHSNGKTYLHWYLQKPGQSPQLLIYKVSNRFSGVPDRFSGSGSGTDFTLKISRVEAEDVGVYYCSQSTHVPWTFGGGTKLEIK
- EC50 [1]: 510 pM

B7: 72D1D11-z8 (antibody, V domains shown)
VH: QVQLVQSGSELKKPGASVKVSCKASGYTFTNLGLNWVRQAPGQGLEWMGWINTAGGQPTYAEDFKGRCVFSLDTSVSTAYLQISSLKAEDTAVYYCARDDGYYYTMDYWGQGTTVTVSS
VL: DIVMTQSPLSLPVTPGEPASISCRSSQSLVHSNGKTYLHWYLQKPGQSPQLLIYKVSNRFSGVPDRFSGSGSGTDFTLKISRVEAEDVGVYFCSQSTHVPWTFGGGTKLEIK
- EC50 [1]: 460 pM

B8: 72D1D11-z7 (antibody, V domains shown)
VH: QVQLVQSGSELKKPGASVKVSCKASGYTFTNLGLNWVRQAPGQGLEWMGWINTAGGQPTYAEDFKGRCVFSLDTSVSTAYLQISSLKAEDTAVYYCARDDGYYYTMDYWGQGTTVTVSS
VL: DIVMTQSPLSLPVTPGEPASISCRSSQSLVHSNGKTYLHWYLQKPGQSPQLLIYKVSNRFSGVPDRFSGSGSGTDFTLKISRVEAEDVGVYYCSQSTHVPWTFGGGTKLEIK
- EC50 [1]: 520 pM

B9: 72D1D11-z3p2 (antibody, V domains shown)
VH: QVQLVQSGSELKKPGASVKVSCKASGYTFTNLGLNWVRQAPGQGLEWMGWINTAGGQPTYAEDFKGRFVFSLDTSVSTAYLQISSLKAEDTAVYYCARDDGYYYTMDYWGQGTTVTVSS
VL: DIVMTQSPLSLPVTPGEPASISCRSSQSLVHSQGKTYLHWYLQKPGQSPQLLIYKVSNRFSGVPDRFSGSGSGTDFTLKISRVEAEDVGVYYCSQSTHVPWTFGGGTKLEIK
- EC50 [2]: 300 pM

B10: 62H9H5 (antibody, V domains shown)
VH: QVQLQQSGAELAKPGASVKMSCKASGYTFTNYWIHWVKQRPGQGLEWIGYISPSTGYTEYNQKFKGKATLTAVKSSSTAFMQLSSLTSEDSAVYFCARGTGYWGQGTTLTVSS
VL: DIQMTQSPASLSASVGESVTITCRASENIYSFFAWYQQKEGKSPQLLVYNAKTLEEGVPSRFSGSGSGTQFSLKINSLQPEDFGSYYCQHNYVSPFTFGSGTKLEIK
- inhibition ratio [3]: 95.5%
- Kd [4]: 464 pM
- koff [4]: 0.00016 s⁻¹
- kon [4]: 346000 M⁻¹ s⁻¹
- EC50 [2]: 42 pM
- inhibition ratio [5]: 90.2%
- inhibition ratio [6]: -7.1%
- inhibition ratio [7]: -6.07%

B11: 294A3C4 (antibody, V domains shown)
VH: QVQLQQPGAELVKPGASVKLSCKASGYTFTSYWMHWVKQRPGQGLEWIGMFHPNSGTTNYNEKFKSKATLTVDKSSSTAYMQLSSLTSEDSAVYYCARRLGIFFDYWGQGTTLTVSS
VL: DIVMTQSPSSLTVTAGEKVTMSCRSSQSLLNSGNQKNYLTWYQQKPGQPPKLLIYWASTRDSGVPDRFTGSGSGTDFTLTISSVQTEDLAVYYCQTDYSYPFTFGSGTKLEIK
- inhibition ratio [3]: -5%
- Kd [4]: 2920 pM
- koff [4]: 0.00135 s⁻¹
- kon [4]: 463000 M⁻¹ s⁻¹
- EC50 [2]: 87 pM
- inhibition ratio [5]: 90%
- inhibition ratio [6]: -7.53%
- inhibition ratio [7]: -12%

B12: 97E6B2 (antibody, V domains shown)
VH: QVQLQQPGAELVKPGASVKMSCKASGYTFTSYWITWVKQRPGQGLEWIGDIYPGSNNTYYNEKFKSKATLTVDTSSSTAYIQLSSLTSEDSAVYYCARLIMSLFDYSGQGTTLTVSS
VL: ENVLTQSPANMSASPGEKVTMTCSVSSSVSYIHWYQQKSSTSPTLWIYDTSKLASGVPGRFSGSGSGNSYALTISSMEAEDVATYYCFQGSAYPLTFGAGTKLELK
- inhibition ratio [3]: 99.7%
- Kd [4]: 743 pM
- koff [4]: 0.000481 s⁻¹
- kon [4]: 647000 M⁻¹ s⁻¹
- EC50 [2]: 260 pM
- inhibition ratio [5]: -7.8%
- inhibition ratio [6]: -1.18%
- inhibition ratio [7]: -3.99%

B13: 106A5B3 (antibody, V domains shown)
VH: EVQLVESGGDLVKPGGSLKLSCAASGFTFSSYGMSWVRQTPDKRLEWVATISSGGSYIYYPDSMKGRFTISRDNAKNTLYLQMSSLQSEDTAIYYCASDYGSRYFDYWGQGTTLTVSS
VL: QIVLTQSPAIMSASPGEKVTMTCSASSSVIYMSWYKQKPGSSPRLLIYDTSNLASGVPVRFSGSGSGTSYSLTISRMEAEDAATYYCQQWSSYPRTFGGGTKLEIK
- inhibition ratio [3]: 96.8%
- Kd [4]: 476 pM
- koff [4]: 0.000396 s⁻¹
- kon [4]: 833000 M⁻¹ s⁻¹
- EC50 [2]: 100 pM
- inhibition ratio [5]: 89.6%
- inhibition ratio [6]: -13%
- inhibition ratio [7]: -15.8%

B14: 227E12D1 (antibody, V domains shown)
VH: EVKLVESGGGLVKPGGSLKLSCAASGFTFSSYGMSWVRQTPEKRLEWVATISGGGTYTYYPDSVKGRFTISRDNAKNNLYLQMSSLRSDDTALYYCARHEGLVMDYWGQGTSVTVSS
VL: DIQMTQSPASLSASVGETVTITCRASENIYSYLAWYQQKQGKSPQLVVYNAKTLAEGVPSRFSGSGSGTQFSLKINSLQPEDFGTYYCQHHYGPPPYTFGGGTKLEIK
- inhibition ratio [3]: 97.1%
- Kd [4]: 619 pM
- koff [4]: 0.000368 s⁻¹
- kon [4]: 595000 M⁻¹ s⁻¹
- EC50 [2]: 93 pM
- inhibition ratio [5]: 90%
- inhibition ratio [6]: -5.22%
- inhibition ratio [7]: -5.46%

B15: 216E7A9 (antibody, V domains shown)
VH: DVQLVESGGGLVQPGGSRKLSCAASGFTFSSFGMHWVRQAPEKGLEWVAYISSGSSTIYYADTVRGRFTISRDNPKNTLFLQMTSLRSEDTAMYYCARGGDYYYALDYWGQGTSVTVSS
VL: DIQMTQSPASLSVSVGETVTITCRASENIHSNLEWYQQKQGKSPQLLVYAATNLADGVPSRFSGSGSGTQYSLKINSLQSEDFGSYYCQHFWGTPFTFGSGTKLEIK
- inhibition ratio [3]: 98%
- Kd [4]: 2490 pM
- koff [4]: 0.000824 s⁻¹
- kon [4]: 331000 M⁻¹ s⁻¹
- EC50 [2]: 80 pM
- inhibition ratio [5]: 92.3%
- inhibition ratio [6]: 1.99%
- inhibition ratio [7]: 5.28%

B16: AHP06358 (antibody, V domains shown)
VH: EVQLVQSGAEVKKPGASVKVSCKASGYTFTSYGISWVRQAPGQGLEWMGWISAYNGNTNYAQKLQGRVTMTTDTSTSTAYMELRSLRSDDTAVYYCARDSPLQIAVAGYYYGMDVWGQGTTVTVSS
VL: NFMLTQPHSVSESPGKTVTISCTRSSGSIVSGYVQWYQQRPGSAPSTVIYEHNQRPSGVPDRFSGSIDSSSNSASLTISGLRTEDEADYYCQSYDSRNMIFGGGTKLTVL
- inhibition ratio [3]: -13.9%
- Kd [4]: 738 pM
- koff [4]: 0.00396 s⁻¹
- kon [4]: 5.37e+06 M⁻¹ s⁻¹
- EC50 [2]: 2400 pM
- inhibition ratio [5]: 91.7%
- inhibition ratio [6]: -10.6%
- inhibition ratio [7]: -13.6%

B17: 126C10B10 (antibody, V domains shown)
VH: GVQLQQSGAELVKPGASVKLSCTGSGFNIKDPYIHWVKQRPEQGLEWIGRIDPANGNTKYGPRFQGRATMTADTSSNTANLQLSSLTSEDTAVYYCTTWNYYLSRGFDYWGQGTTLTVSS
VL: QIVLTQSPAIMSASPGEKVTMTCSARSSVTYMHWYQQKSGTSPKRWIYDTSKLASGVPARFSGSGSGTSYSLTISSMEAEDAATYYCQQWTSNPLTFGAGTKLELK
- inhibition ratio [3]: 96.6%
- Kd [4]: 837 pM
- koff [4]: 0.000367 s⁻¹
- kon [4]: 438000 M⁻¹ s⁻¹
- EC50 [2]: 220 pM
- inhibition ratio [5]: -22.2%
- inhibition ratio [6]: -5.98%
- inhibition ratio [7]: -9.58%
